Experimental data: patent publication US20240084027A1 (BEIJING MABWORKS, published 2024)
Like-named read-outs stand apart in the source and are kept apart here. Values belong to the binder of their own block, whether it stands above or below them.

Experiments:
[1] = target: T1, human PD-L1 on HEK293A/human PD-L1 cells (human, UniProt Q9NZQ7 19-290); assay: FACS blocking assay on HEK293A/human PD-L1 cells; blocked ligand PD-1-Fc
Method: The bispecific antibodies were tested for their blocking activity on PD-1-PD-L1 binding by FACS using the HEK293A cells stably expressing human PD-L1 molecules as prepared in Example 1. Briefly, a 96-well plate was seeded with 10⁵ HEK293A/human PD-L1 cells in 100 μl cell culture medium, and then added with 50 μl serially diluted anti-PD-L1 antibody 56E5VH5VL4 or MBS307-3 molecules. After incubation at 4° C. for 1 h. the plate was washed with PBST for 3 times, added with 100 μl 200 μg/ml PD-1-Fc fusion proteins (Cat #:10377-10211, Sino Biological, CN), incubated at 4° C. for 1 h, washed with PBST for 3 times, and added with 1:500 diluted PE-goat anti-human IgG (Cat #:PAI-86078, Thermofisher, USA). After incubation at 4° C. for 1 h, the plate was washed with PBST for 3 times and measured for fluorescence using a FACS machine (BD).
Following the protocol of Example 7, the bi- or multi-specific antibodies were tested for their capability to block PD-1-PD-L1 binding by FACS, using the HEK293A cells prepared in Example 1 that stably expressed human PD-L1 molecules.

[2] = target: T1, human PD-L1 on HEK293A/human PD-L1 cells; assay: FACS on HEK293A/human PD-L1 cells
Method: (§1) The bispecific antibodies as prepared above were tested for their binding capability to cell surface human, monkey and mouse CD40 proteins by FACS, using the HEK293A cells prepared in Example 1 that stably expressed human, monkey or mouse CD40. Briefly, a 96-well plate was seeded with 10⁵ HEK293A cells in 50 μl PBS, and then added with 100 μl serially diluted anti-CD40 antibody 714VH2VL2 and the bispecific antibodies of the disclosure (starting concentration at 40 μg/ml). After incubation at 4° C. for 1 h, the plate was washed by PBST for 3 times. The plate was added with 1:500 diluted APC-goat anti-mouse IgG (Cat #:405308, BioLegen, USA), incubated at 4° for 1 h, washed with PBS for 3 times, and subjected to fluorescence measurement in a FACS machine (BD).
(§2) Following the protocols in Example 4 and Example 5, the bi- or multi-specific antibodies of the disclosure were tested for their binding capability to human PD-L1 and human CD40 proteins by FACS using the HEK293A cells prepared in Example 1 that stably expressed human PD-L1 or human CD40.

[3] = target: T1, human PD-L1 on HEK293A/human PD-L1 cells; assay: FACS on HEK293A/human PD-L1 cells; remark: listed apart in the source
Method: as §1, §2

[4] = target: T2, human CD40 on HEK293A/human CD40 cells (human, UniProt P25942 21-277); assay: FACS on HEK293A/human CD40 cells
T2 construct: also called HEK-Blue/CD40 cells
Method: as §1, §2

[5] = target: T2, human CD40 on HEK293A/human CD40 cells; assay: cell-based or functional assay
[6] = target: T3, human CD40-his protein (human, UniProt P25942 21-193); assay: SPR (BIAcore 8K), human CD40-his coupled to CM5 chip, antibody injected
T3 construct: Bought protein; also called human CD40 protein; CD40 molecules; not shown: his tag
Description: (§3) Using BIAcore™ 8K instrument (GE Life Sciences, US), the binding affinity of the bi- or multi-specific antibodies to human CD40 and PD-L1 was quantitatively measured. Briefly, 100-200 response units (RU) of human CD40-his protein (Cat #:10774-1108H, Sino Biological, CN) or human PD-L1-his protein (Cat #:10084-H08H, Sino Biological, CN) were coupled to CM5 biosensor chips (Cat #:BR-1005-30, GE Life Sciences. USA). The un-reacted groups were then blocked with 1 M ethanolamine. Serially diluted antibodies at concentrations ranging from 0.3 μM to 10 μM were injected into the SPR running buffer (HBS-EP buffer, pH7.4, Cat #:BR-1006-69, GE Life Sciences, USA) at 30 μL/min. The binding affinity was calculated with the RUs of blank controls subtracted, and the association rate (kₐ) and dissociation rate (kd) were determined using the one-to-one Langmuir binding model (BIA Evaluation Software, GE Life Sciences, USA). The equilibrium dissociation constant KD was calculated as the kd/kₐ ratio.

[7] = target: T2, human CD40 on HEK293A/human CD40 cells; assay: FACS on HEK293A/human CD40 cells; remark: listed apart in the source
Method: as §1, §2

[8] = target: T4, human PD-L1-his protein (human, UniProt Q9NZQ7 19-238); assay: SPR (BIAcore 8K), human PD-L1-his coupled to CM5 chip, antibody injected
T4 construct: extracellular domain; also called human PD-L1 (ECD)-his; human PD-L1 protein; not shown: his tag
T4 sequence (Q9NZQ7 19-238): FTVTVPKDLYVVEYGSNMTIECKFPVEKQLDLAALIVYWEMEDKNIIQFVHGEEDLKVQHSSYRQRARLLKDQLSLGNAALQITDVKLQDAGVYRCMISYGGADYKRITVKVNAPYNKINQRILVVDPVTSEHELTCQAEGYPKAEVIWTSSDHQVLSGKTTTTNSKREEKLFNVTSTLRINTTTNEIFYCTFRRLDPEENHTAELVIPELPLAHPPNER
Description: as §3

[9] = target: T2, human CD40 on HEK293A/human CD40 cells; assay: FACS on HEK293A/human CD40 cells; remark: listed apart in the source
Method: as §1, §2

[10] = target: T2, human CD40 on HEK293A/human CD40 cells; assay: cell-based or functional assay; remark: listed apart in the source
[11] = target: T1, human PD-L1 on HEK293A/human PD-L1 cells; assay: FACS on HEK293A/human PD-L1 cells; remark: listed apart in the source
Method: as §1, §2

T1 sequence (Q9NZQ7 19-290 limits assumed): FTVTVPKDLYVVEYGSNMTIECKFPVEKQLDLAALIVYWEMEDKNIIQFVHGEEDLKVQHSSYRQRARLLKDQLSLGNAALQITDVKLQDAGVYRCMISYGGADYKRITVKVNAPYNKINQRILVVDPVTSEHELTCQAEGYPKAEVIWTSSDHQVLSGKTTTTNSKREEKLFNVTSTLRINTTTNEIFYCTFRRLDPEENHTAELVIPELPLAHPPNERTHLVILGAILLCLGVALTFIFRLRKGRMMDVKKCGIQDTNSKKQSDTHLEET

IC50 (read off the curve) [1]: ~0.5 µg/mL
EC50 (read off the curve) [2]: ~0.2 µg/mL
EC50 (read off the curve) [3]: ~0.1 µg/mL
B1: anti-PD-L1 antibody 3C2VH6VL5 (antibody, V domains shown)
VH: QVQLVQSGAEVKKPGASVKVSCKASGYTFTDYHVNWVRQAPGQGLEWIGWIFPGSGRTFYTDKFKGRVTMTVDTSTSTVYMELSSLRSEDTAVYYCATDYGTSGYGLVYWGQGTTVTVSS
VL: DIQMTQSPSSLSASVGDRVTITCKASDRINNWLAWYQQKPGKAPKLLISGATSLETGVPSRFSGSGSGTDFTLTISSLQPEDIATYYCQQYWNIPFTFGQGTKVEIK
notes: also called 3C2VH46VL5 [sic]

EC50 (read off the curve) [4]: ~0.04 µg/mL
EC50 (read off the curve); HEK-Blue/CD40 reporter, OD630, plate coated with human PD-L1-his [5]: ~0.05 µg/mL
Kd [6]: 2.72 nM
EC50 (read off the curve) [7]: ~0.07 µg/mL
Kd [8]: 17.7 nM
EC50 (read off the curve) [9]: ~0.02 µg/mL
EC50 (read off the curve); HEK-Blue/CD40 reporter, OD630, plate coated with human PD-L1-his [10]: ~0.03 µg/mL
B2: MBS307-10 (bispecific antibody, human IgG1, kappa, L234A L235A)
heavy 1: QVQLQESGPGLVKPSDTLSLTCAVSGYSITTNYYWNWIRQPPGKGLEWMGYIKYDGSNNYNPSLKNRITISVDTSKNQFSLKLSSVTAVDTAVYYCARLDYWGQGTLVTVSSASTKGPSVFPLAPSSKSTSGGTAALGCLVKDYFPEPVTVSWNSGALTSGVHTFPAVLQSSGLYSLSSVVTVPSSSLGTQTYICNVNHKPSNTKVDKKVEPKSCDKTHTCPPCPAPEAAGGPSVFLFPPKPKDTLMISRTPEVTCVVVDVSHEDPEVKFNWYVDGVEVHNAKTKPREEQYNSTYRVVSVLTVLHQDWLNGKEYKCKVSNKALPAPIEKTISKAKGQPREPQVYTLPPSREEMTKNQVSLWCLVKGFYPSDIAVEWESNGQPENNYKTTPPVLDSDGSFFLYSKLTVDKSRWQQGNVFSCSVMHEALHNHYTQKSLSLSPGK
heavy 2: QVQLQESGPGLVKPSDTLSLTCAVSGYSITTNYYWNWIRQPPGKGLEWMGYIKYDGSNNYNPSLKNRITISVDTSKNQFSLKLSSVTAVDTAVYYCARLDYWGQGTLVTVSSASTKGPSVFPLAPSSKSTSGGTAALGCLVKDYFPEPVTVSWNSGALTSGVHTFPAVLQSSGLYSLSSVVTVPSSSLGTQTYICNVNHKPSNTKVDKKVEPKSCDKTHTCPPCPAPEAAGGPSVFLFPPKPKDTLMISRTPEVTCVVVDVSHEDPEVKFNWYVDGVEVHNAKTKPREEQYNSTYRVVSVLTVLHQDWLNGKEYKCKVSNKALPAPIEKTISKAKGQPREPQVYTLPPSREEMTKNQVSLSCAVKGFYPSDIAVEWESNGQPENNYKTTPPVLDSDGSFFLVSKLTVDKSRWQQGNVFSCSVMHEALHNHYTQKSLSLSPGGGGGQVQLVQSGAEVKKPGASVKVSCKASGYTFTDYHVNWVRQAPGQGLEWIGWIFPGSGRTFYTDKFKGRVTMTVDTSTSTVYMELSSLRSEDTAVYYCATDYGTSGYGLVYWGQGTTVTVSSGGGGSGGGGSGGGGSGGGGSDIQMTQSPSSLSASVGDRVTITCKASDRINNWLAWYQQKPGKAPKLLISGATSLETGVPSRFSGSGSGTDFTLTISSLQPEDEATYYCQQYWNIPFTFGQGTKLTAK
light: DVVLTQSPLSLPVTLGQPASISCRSSQSLENSNGNTFLNWFQQRPGQSPRLLIYKVSNRFSGVPDRFSGSGSGTDFTLKISRVEAEDVGVYYCLQVTHVPFTFGQGTKLEIKRTVAAPSVFIFPPSDEQLKSGTASVVCLLNNFYPREAKVQWKVDNALQSGNSQESVTEQDSKDSTYSLSSTLTLSKADYEKHKVYACEVTHQGLSSPVTKSFNRGEC
notes: Asymmetric: knob chain without scFv, hole chain with the 3C2VH6VL5 scFv; also called MBS307-10-1 + MBS307-10-2

EC50 (read off the curve) [11]: ~0.5 µg/mL
EC50 (read off the curve) [9]: ~0.04 µg/mL
B3: MBS307-8 (bispecific antibody, human IgG1, kappa, L234A L235A)
heavy 1: QVQLQESGPGLVKPSDTLSLTCAVSGYSITTNYYWNWIRQPPGKGLEWMGYIKYDGSNNYNPSLKNRITISVDTSKNQFSLKLSSVTAVDTAVYYCARLDYWGQGTLVTVSSASTKGPSVFPLAPSSKSTSGGTAALGCLVKDYFPEPVTVSWNSGALTSGVHTFPAVLQSSGLYSLSSVVTVPSSSLGTQTYICNVNHKPSNTKVDKKVEPKSCDKTHTCPPCPAPEAAGGPSVFLFPPKPKDTLMISRTPEVTCVVVDVSHEDPEVKFNWYVDGVEVHNAKTKPREEQYNSTYRVVSVLTVLHQDWLNGKEYKCKVSNKALPAPIEKTISKAKGQPREPQVYTLPPSREEMTKNQVSLWCLVKGFYPSDIAVEWESNGQPENNYKTTPPVLDSDGSFFLYSKLTVDKSRWQQGNVFSCSVMHEALHNHYTQKSLSLSPGSGGGGSGGGGSQVQLVQSGAEVKKPGASVKVSCKASGYTFTDYHVNWVRQAPGQGLEWIGWIFPGSGRTFYTDKFKGRVTMTVDTSTSTVYMELSSLRSEDTAVYYCATDYGTSGYGLVYWGQGTTVTVSSGGGGSGGGGSGGGGSGGGGSDIQMTQSPSSLSASVGDRVTITCKASDRINNWLAWYQQKPGKAPKLLISGATSLETGVPSRFSGSGSGTDFTLTISSLQPEDEATYYCQQYWNIPFTFGQGTKLTAK
heavy 2: QVQLQESGPGLVKPSDTLSLTCAVSGYSITTNYYWNWIRQPPGKGLEWMGYIKYDGSNNYNPSLKNRITISVDTSKNQFSLKLSSVTAVDTAVYYCARLDYWGQGTLVTVSSASTKGPSVFPLAPSSKSTSGGTAALGCLVKDYFPEPVTVSWNSGALTSGVHTFPAVLQSSGLYSLSSVVTVPSSSLGTQTYICNVNHKPSNTKVDKKVEPKSCDKTHTCPPCPAPEAAGGPSVFLFPPKPKDTLMISRTPEVTCVVVDVSHEDPEVKFNWYVDGVEVHNAKTKPREEQYNSTYRVVSVLTVLHQDWLNGKEYKCKVSNKALPAPIEKTISKAKGQPREPQVYTLPPSREEMTKNQVSLSCAVKGFYPSDIAVEWESNGQPENNYKTTPPVLDSDGSFFLVSKLTVDKSRWQQGNVFSCSVMHEALHNHYTQKSLSLSPGSGGGGSGGGGSQVQLQESGPGLVKPSQTLSLTCTVSGGSITSDYWNWIRQHPGNKLEYMGYISYTGSTYYNPSLKSRISITRDTSKNQFSLKLSSVTTADTAVYYCARYRDWDVRAMDYWGQGTTVTVSSGGGGSGGGGSGGGGSGGGGSDIVMTQSPDSLAVSLGEKVTMNCKSSQSLLISGNQKNFLTWYQQKPGQPPKLLIYWASTRESGVPDRFSGSGSGTDFTLTISSLQAEDEAVYYCQNDFGFPFTFGQGTKLTAK
light: B2 light
notes: Asymmetric: knob chain with the 3C2VH6VL5 scFv, hole chain with the 56E5VH5VL4 scFv, linker 3 (long linker); also called MBS307-8-1 + MBS307-8-2
